This is an account of results in the supplement of paper PMC5998384.

Data set [1] has as its system HeLa Kyoto. As to the kind of experiment: solubility in G1/S (NP-40 vs SDS abundance) (log2 ratio); higher = more soluble. The conditions noted are these: cell cycle stage: G1/S.
For data set [2], the system named is HeLa Kyoto. In words: melting temperature (median over replicates), in situ; higher = more thermally stable.
For data set [3], the system named is HeLa Kyoto. As to the kind of experiment: solubility change mitosis vs G1/S (difference of NP-40 vs SDS log2 ratios) (log2 ratio difference); higher = more soluble in mitosis.
Data set [4] concerns HeLa Kyoto. In words: thermal stability score vs G1/S (z-score of summed log2 fold changes over temperatures); higher = more thermally stable than in G1/S.
Setting [5] is: cell cycle stage: early G1 (4.5 h after nocodazole release).
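Throughout, for melting temperature (median over replicates), in situ: HeLa Kyoto cells synchronized by double thymidine or nocodazole block, proteins quantified by TMT10plex mass spectrometry, three independent biological replicates.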
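Throughout, for solubility change mitosis vs G1/S (difference of NP-40 vs SDS log2 ratios): synchronized HeLa Kyoto cells (double thymidine block for G1/S, nocodazole release for mitosis), protein amounts in NP-40 versus SDS lysates quantified by mass spectrometry, three biological replicates.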
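Throughout, for solubility in G1/S (NP-40 vs SDS abundance): HeLa Kyoto cells arrested at G1/S by double thymidine block, proteins quantified by TMT10plex mass spectrometry in mild NP-40 versus SDS extracts, three biological replicates.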
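Throughout, for thermal stability score vs G1/S (z-score of summed log2 fold changes over temperatures): synchronized HeLa Kyoto cells, proteins quantified by TMT10plex mass spectrometry, three biological replicates, mitosis taken 0.5 h after nocodazole release, G1/S directly after double thymidine block.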

Take “MAECGRGGAAGGALPTSPGPALGAKGALKAGVGEGGGGGGRLGHGRARYDSGGVSNGDCSLGVSGDEARASPTRGPRGVALAPTPSAVVCTLPRESKPGGLPRRSSIIKDGTKQKRERKKTVSFSSMPTEKKISSASDCINSMVEGSELKKVRSNSRIYHRYFLLDADMQSLRWEPSKKDSEKAKIDIKSIKEVRTGKNTDIFRSNGISDQISEDCAFSVIYGENYESLDLVANSADVANIWVTGLRYLISYGKHTLDMLESSQDNMRTSWVSQMFSEIDVDNLGHITLCNAVQCIRNLNPGLKTSKIELKFKELHKSKDKAGTEVTKEEFIEVFHELCTRPEIYFLLVQFSSNKEFLDTKDLMMFLEAEQGVAHINEEISLEIIHKYEPSKEGQEKGWLSIDGFTNYLMSPDCYIFDPEHKKVCQDMKQPLSHYFINSSHNTYLIEDQFRGPSDITGYIRALKMGCRSVELDVWDGPDNEPVIYTGHTMTSQIVFRSVIDIINKYAFFASEYPLILCLENHCSIKQQKVMVQHMKKLLGDKLYTTSPNVEESYLPSPDVLKGKILIKAKKLSSNCSGVEGDVTDEDEGAEMSQRMGKENMEQPNNVPVKRFQLCKELSELVSICKSVQFKEFQVSFQVQKYWEVCSFNEVLASKYANENPGDFVNYNKRFLARVFPSPMRIDSSNMNPQDFWKCGCQIVAMNFQTPGLMMDLNIGWFRQNGNCGYVLRPAIMREEVSFFSANTKDSVPGVSPQLLHIKIISGQNFPKPKGSGAKGDVVDPYVYVEIHGIPADCAEQRTKTVHQNGDAPIFDESFEFQINLPELAMVRFVVLDDDYIGDEFIGQYTIPFECLQTGYRHVPLQSLTGEVLAHASLFVHVAITNRRGGGKPHKRGLSVRKGKKSREYASLRTLWIKTVDEVFKNAQPPIRDATDLRENMQNAVVSFKELCGLSSVANLMQCMLAVSPRFLGPDNTPLVVLNLSEQYPTMELQGIVPEVLKKIVTTYDMMIQSLKALIENADAVYEKIVHCQKAAMEFHEHLHSIGTKEGLKERKLQKAVESFTWNITILKGQADLLKYAKNETLENLKQIHFAAVSCGLNKPGTENADVQKPRRSLEVIPEKANDETGE [PLCL2]”: the “solubility in G1/S (log2)” value in data set [1] is -0.0622. Also, the melting temperature is 50.4 °C in data set [2] (cell cycle stage: G1/S) and 50.2 °C in data set [2] (cell cycle stage: mitosis). The “solubility change mitosis (log2)” value in data set [3] is -0.105. In addition, the thermal stability score in data set [4] (setting [5]) was -0.0105; in data set [4] (cell cycle stage: mitosis) it was -0.32.
As to “MAEERPGAWFGFGFCGFGQELGSGRGRQVHSPSPLRAGVDICRVSASWSYTAFVTRGGRLELSGSASGAAGRCKDAWASEGLLAVLRAGPGPEALLQVWAAESALRGEPLWAQNVVPEAEGEDDPAGEAQAGRLPLLPCARAYVSPRAPFYRPLAPELRARQLELGAEHALLLDAAGQVFSWGGGRHGQLGHGTLEAELEPRLLEALQGLVMAEVAAGGWHSVCVSETGDIYIWGWNESGQLALPTRNLAEDGETVAREATELNEDGSQVKRTGGAEDGAPAPFIAVQPFPALLDLPMGSDAVKASCGSRHTAVVTRTGELYTWGWGKYGQLGHEDTTSLDRPRRVEYFVDKQLQVKAVTCGPWNTYVYAVEKGKS [RCCD1]”, the “solubility in G1/S (log2)” value in data set [1] was 0.0194. Besides, the melting temperature amounted to 51.8 °C in data set [2] (cell cycle stage: G1/S) and 54 °C in data set [2] (cell cycle stage: mitosis). Also, the “solubility change mitosis (log2)” value in data set [3] is -0.0463. For the same sequence, the figures for the thermal stability score in data set [4] (setting [5]) and in data set [4] (cell cycle stage: mitosis) were -0.546 and -1.48, respectively.
As to “MAEGDEAARGQQPHQGLWRRRRTSDPSAAVNHVSSTTSLGENYEDDDLVNSDEVMKKPCPVQIVLAHEDDHNFELDEEALEQILLQEHIRDLNIVVVSVAGAFRKGKSFLLDFMLRYMYNKDSQSWIGGNNEPLTGFTWRGGCERETTGIQVWNEVFVIDRPNGTKVAVLLMDTQGAFDSQSTIKDCATVFALSTMTSSVQVYNLSQNIQEDDLQHLQLFTEYGRLAMEEIYQKPFQTLMFLIRDWSYPYEHSYGLEGGKQFLEKRLQVKQNQHEELQNVRKHIHNCFSNLGCFLLPHPGLKVATNPSFDGRLKDIDEDFKRELRNLVPLLLAPENLVEKEISGSKVTCRDLVEYFKAYIKIYQGEELPHPKSMLQATAEANNLAAVAGARDTYCKSMEQVCGGDKPYIAPSDLERKHLDLKEVAIKQFRSVKKMGGDEFCRRYQDQLEAEIEETYANFIKHNDGKNIFYAARTPATLFAVMFAMYIISGLTGFIGLNSIAVLCNLVMGLALIFLCTWAYVKYSGEFREIGTVIDQIAETLWEQVLKPLGDNLMEENIRQSVTNSIKAGLTDQVSHHARLKTD [ATL2]”, in data set [1], the “solubility in G1/S (log2)” value was -0.0336. The melting temperature in data set [2] (cell cycle stage: G1/S) and in data set [2] (cell cycle stage: mitosis) was 51.8 °C each time. Also, the “solubility change mitosis (log2)” value in data set [3] was -0.192. Also, the thermal stability score in data set [4] (setting [5]) was -0.416; in data set [4] (cell cycle stage: mitosis) it was -0.584.
“MAEGEDVPPLPTSSGDGWEKDLEEALEAGGCDLETLRNIIQGRPLPADLRAKVWKIALNVAGKGDSLASWDGILDLPEQNTIHKDCLQFIDQLSVPEEKAAELLLDIESVITFYCKSRNIKYSTSLSWIHLLKPLVHLQLPRSDLYNCFYAIMNKYIPRDCSQKGRPFHLFRLLIQYHEPELCSYLDTKKITPDSYALNWLGSLFACYCSTEVTQAIWDGYLQQADPFFIYFLMLIILVNAKEVILTQESDSKEEVIKFLENTPSSLNIEDIEDLFSLAQYYCSKTPASFRKDNHHLFGSTLLGIKDDDADLSQALCLAISVSEILQANQLQGEGVRFFVVDCRPAEQYNAGHLSTAFHLDSDLMLQNPSEFAQSVKSLLEAQKQSIESGSIAGGEHLCFMGSGREEEDMYMNMVLAHFLQKNKEYVSIASGGFMALQQHLADINVDGPENGYGHWIASTSGSRSSINSVDGESPNGSSDRGMKSLVNKMTVALKTKSVNVREKVISFIENTSTPVDRMSFNLPWPDRSCTERHVSSSDRVGKPYRGVKPVFSIGDEEEYDTDEIDSSSMSDDDRKEVVNIQTWINKPDVKHHFPCKEVKESGHMFPSHLLVTATHMYCLREIVSRKGLAYIQSRQALNSVVKITSKKKHPELITFKYGNSSASGIEILAIERYLIPNAGDATKAIKQQIMKVLDALES [TBC1D23]”: the “solubility in G1/S (log2)” value in data set [1] came to 0.0926. In addition, the melting temperature in data set [2] (cell cycle stage: G1/S) was 50.5 °C; in data set [2] (cell cycle stage: mitosis) it was 50 °C. Besides, in data set [3], the “solubility change mitosis (log2)” value stood at 0.0232. In addition, the thermal stability score turned out to be 0.43 in data set [4] (setting [5]) and 0.147 in data set [4] (cell cycle stage: mitosis).
